Laboratory results: patent publication US5593867, “Fluorerscence polarization detection of nucleic acid amplication” (Becton, Dickinson and Company)

How the values were obtained:
EcoRI = EcoRI (UniProt P00642 P00642:2-277); assay: FP; no enhancement of FP change without recognition site; EDTA buffer, 37 C; conditions: tags: New England BioLabs; chain copies: 2
EcoRI (Gln 111) = EcoRI (Gln 111) (UniProt P00642 P00642:2-277, Gln111 (cleavage-deficient; parent residue not stated)); assay: as above; conditions: chain copies: 2

B1: SEQ7/SEQ9 duplex lacking EcoRI site (dsDNA)
DNA 1: ATCCGTATGGTGGATAACGTCTTTCA
DNA 2: TGAAAGACGTTATCCACCATACGGAT
EcoRI
  binding result: no binding
EcoRI (Gln 111)
  binding result: no binding
